Experimental findings from patent US20240294622A1 (SUZHOU TRANSCENTA THERAPEUTICS, published 2024) are described below.

In test [1] the target is T1, HGREM1-His (ACRO) (human, UniProt O60565 25-184).
T1 construct: Lys25-Asp184 of NP_037504 with C-terminal polyhistidine tag (ACRO GR1-H52H3); they are put here; also called hGREM1 (ACRO); human gremlin (ACRO)
T1 sequence: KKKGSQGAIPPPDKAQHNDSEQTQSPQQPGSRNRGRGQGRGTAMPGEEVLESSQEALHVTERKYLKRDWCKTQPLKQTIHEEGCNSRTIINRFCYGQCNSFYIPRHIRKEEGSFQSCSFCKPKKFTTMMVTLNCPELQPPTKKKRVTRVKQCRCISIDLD
Put plainly: ELISA, coated hGREM1 (ACRO).

The target of test [2] is T1, HGREM1-His (ACRO). Put plainly: blocking ELISA, Human Gremlin-1 binding to FGFR1. As for the experimental part: Next, 0.25 μg/ml of gremlin was selected to test the blocking activity. The ability of antibodies to block Gremlin binding to human FGFR1-Fc was examined via ELISA. Plates were coated with recombinant FGFR1-Fc (2 μg/ml) overnight and then serial dilutions of antibodies were incubated with 0.25 μg/ml of human Gremlin-his modified for 1 h at RT before this complex was added to coated plates and allowed to incubate for an additional hour at RT. The plates were then washed and added with anti-his HRP (GenScript). Plates were then developed with a TMB solution and stopped by adding stop solution. The plates were read on a plate reader at 450 nm. […] Humanized anti-GREM1 antibodies provided herein (e.g., Hu14E3, Hu22F1) are expected to show the similar technical effect as their chimeric counterparts in blocking the binding of hGREM1 to FGFR1.

In test [3] the target is T1, HGREM1-His (ACRO). Put plainly: blocking ELISA, Human Gremlin-1 binding to BMP4; column OD450. As for the experimental part:
(§1) In addition, the ability of serial dilutions of antibodies provided herein to block Gremlin binding to human BMP2/4/7 was also examined via ELISA. Plates were coated with recombinant human BMP2/4/7 (0.5 μg/ml) overnight and then serial dilutions of antibodies were incubated with 1 μg/ml of human Gremlin-his modified for 1 h at RT before this complex was added to coated plates and allowed to incubate for an additional hour at RT. The plates were then washed and added with anti-his HRP (GenScript). Plates were then developed with a TMB solution and stopped by adding stop solution. The plates were read on a plate reader at 450 nm. […] The chimeric anti-gremlin 1 antibodies (69H5-chi) and chimeric anti-gremlin 1 antibodies (22F1-chi) also can inhibit the binding of gremlin to BMP2 and BMP4 (see, FIG. 3E and FIG. 3F). The chimeric anti-gremlin 1 antibodies (56C11-chi) can inhibit the binding of gremlin to BMP2 (see, FIG. 3E).

Test [4] has as its target T1, HGREM1-His (ACRO). The test can be described thus: blocking ELISA, Human Gremlin-1 binding to BMP7; column OD450. Here is the method: as §1
The target in test [5] is T1, HGREM1-His (ACRO). The test can be described thus: blocking ELISA, Human Gremlin-1 binding to BMP4; column Percentage. Here is the method:
as §1

The target in test [6] is T1, HGREM1-His (ACRO). The test can be described thus: blocking ELISA, Human Gremlin-1 binding to BMP7; column Percentage. Here is the method: as §1
The target of a further test is T2, Mouse Gremlin-His (R&D) (mouse, UniProt O70326 25-184).
T2 construct: Lys25-Asp184 with 10xHis, R&D 956-GR; also called mouse gremlin (R&D); mGREM1
T2 sequence: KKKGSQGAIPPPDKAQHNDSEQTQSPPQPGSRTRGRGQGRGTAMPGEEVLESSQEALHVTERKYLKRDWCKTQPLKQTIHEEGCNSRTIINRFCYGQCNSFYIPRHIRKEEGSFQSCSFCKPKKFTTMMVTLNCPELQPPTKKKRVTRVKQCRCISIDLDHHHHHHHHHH
Put plainly: ELISA on coated Mouse Gremlin-his, anti-mouse IgG-HRP. As for the experimental part:
Clear polystyrene plates (BEAVER) were coated with 100 μl/well of a […] hGREM1 (ACRO) and mouse gremlin (R&D) in high pH coating buffer overnight at 4° C. Then the plates were washed once on an automatic plate washer using PBS+0.1% Tween 20 (Sigma). 100 μl of block solution consisting of PBS+1% BSA+1% normal goat serum+0.5% Tween 20 (Sigma) was added to each well and incubated at room temperature for 2 hours. Then 100 μl of antibodies in antibody dilution buffer containing PBS+1% BSA+1% normal goat serum+0.01% Tween 20 starting from 2 μg/ml and then serial dilutions were added to each well of the plate and incubated for 1 hours at room temperature. Afterward the plates were washed three times with 200 μl of PBS+0.1% Tween20 followed by adding 100 μl/well 1:10000 Goat anti mouse IgG-HRP (abcam), and incubate for 1 hour at room temperature. They were then washed 3× with PBS+0.1% Tween20. Finally, 100 µl/well of TMB (Pierce) was added to each well and after several minutes add 50 μl of stop solution to each well. The plates were read on a Multiscan FC microplate reader (Thermo Scientific) at […].

The target of test [7] is T1, HGREM1-His (ACRO). The test can be described thus: ELISA on coated hGREM1 (Example 5: ACRO; sheet title: DAN Family,R&D,0.5ug/ml), anti-mouse IgG-HRP. Here is the method:
In addition, the specificity of the binding of 14E3 and a benchmark antibody was assessed with ELISA. Briefly, clear polystyrene plates (BEAVER) were coated with 100 μl/well of a […] hGREM1 (ACRO), or human gremlin-2 (R&D), human COCO (R&D) and human DAN protein (R&D) in high pH coating buffer overnight at 4° C. Then the plates were washed once on an automatic plate washer using PBS+0.1% Tween 20 (Sigma). 100 μl of block solution consisting of PBS+1% BSA+1% normal goat serum+0.5% Tween 20 (Sigma) was added to each well and incubated at room temperature for 2 hours. Then 100 ul of antibodies in antibody dilution buffer containing PBS+1% BSA+1% normal goat serum+0.01% Tween 20 starting from 2 μg/ml and then 5 fold serial dilution were added to each well of the plate and incubated for 1 hours at room temperature. Afterward the plates were washed three times with 200 ul of PBS+0.1% Tween20 followed by adding 100 μl/well 1:10000 Goat anti mouse IgG-HRP (Abcam), and incubate for 1 hour at room temperature. They were then washed 3× with PBS+0.1% Tween20. Finally, 100 µl/well of TMB (Pierce) was added to each well and after 5 minutes add 50 ul of stop solution to each well. The plates were read on a Multiscan FC microplate reader (Thermo Scientific) at […].

B1: 36F5 (antibody, V domains shown)
VH: QVQLQQSGAELARPGASVKLSCKASGYSFTSSGIGWVKQRSGQGLEWIGEIYPRSGNTYNNEKFKGKATLTADKSSSTVYMELRSLTSEDSAVYFCVREAYSHHYYAMDYWGQGTSVTVFS
VL: DVLMTQTPLSLPVSLGGQASISCRSSQSLLHSNGNTYLEWYLQKPGQSPKLLIYKVSNRFSGVPDRLSGSGSGTDFTLKISRVEAEDLGVYYCFQGSHVPFTFGSGTKLEIN
notes: mouse hybridoma antibody; also called hybridoma 36F5
B1 had an EC50 with HGREM1-His (ACRO) [1] of 0.00587 µg/mL. The IC50 in the test with HGREM1-His (ACRO) [2] worked out at 1.84 µg/mL; with HGREM1-His (ACRO) [3], 0.512 µg/mL; with HGREM1-His (ACRO) [4] it was 0.683 µg/mL; with HGREM1-His (ACRO) [5] it was 0.512 µg/mL; with HGREM1-His (ACRO) [6] it was 0.683 µg/mL.

B2: 14E3 (antibody, V domains shown)
VH: QIQLVQSGPELKKPGETVKISCKTSGSTFTTYGMAWMKQAPGKGLTWMGWINTLSGEPTYADDFKGRFAFSLKTSANTAYLQINNLKNEDAATYFCAREPMDYWGQGTSVIVSS
VL: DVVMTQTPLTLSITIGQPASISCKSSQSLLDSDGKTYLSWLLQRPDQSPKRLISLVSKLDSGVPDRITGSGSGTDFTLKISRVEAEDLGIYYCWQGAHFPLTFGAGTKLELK
notes: mouse hybridoma antibody; also called hybridoma 14E3; anti-gremlin1 antibody 14E3
Consider B2, for which a half-maximal effect with HGREM1-His (ACRO) [1] (EC50) was put at 0.0136 µg/mL. Further, in the test with Mouse Gremlin-His (R&D), the binding result is “no binding”. Besides, the “EC50 (read off the curve)” value in the test with HGREM1-His (ACRO) [7] was approximately 0.01 µg/mL.
